Measured values taken from patent publication US20150307603A1 (MODIQUEST B V, published 2015).
Non-standard residues stand in square brackets, D forms with d. No end group written: not given here. Cit = NC(=O)NCCC[C@H](N)C(=O)O

Key:
[1] = biological target: T1, CFC-1; experiment: ELISA, Ab 0.4 ug/well
T1 construct: Positive control for anti-citrulline reactivity; also called cfc1 XG; Cfc1-peptide
Method: (§1) Biotin and citrulline-containing peptides derived from histone 2A were immobilized on NEUTRAVIDIN®-coated 96-well ELISA plates (0.3 μg/well). CFC-1 and CFC-0 were coated at the same concentration and served as positive and negative controls, respectively, for specific anti-citrulline reactivity and as coating controls. Non-coated wells were used to test for aspecific binding of the antibodies. […] Detection of bound anti-citrulline antibodies was performed by incubating the wells with rabbit anti-human HRP (1:2000) for 1 hour at RT followed by incubation with TMB substrate. The resulting OD (y-axis) is a measure for antibody binding.

[2] = biological target: T2, peptide no. 1 (human histone 2A) (human, also: biotin-labelled); experiment: ELISA, Ab 0.4 ug/well
T2 construct: also called peptide 1; AAASGXGKQGGK
T2 peptide: AAASG[Cit]GKQGGK
Method: as §1

[3] = biological target: T3, peptide no. 2 (human histone 2A) (human, also: biotin-labelled); experiment: ELISA, Ab 0.4 ug/well
T3 construct: also called peptide 2
T3 peptide: AKAKS[Cit]SSRAGL
Method: as §1

[4] = biological target: T4, peptide no. 3 (human histone 2A) (human, also: biotin-labelled); experiment: ELISA, Ab 0.4 ug/well
T4 construct: also called peptide 3
T4 peptide: KSRSS[Cit]AGLQFP
Method: as §1

[5] = biological target: T5, peptide no. 4 (human histone 2A) (human, also: biotin-labelled); experiment: ELISA, Ab 0.4 ug/well
T5 construct: also called peptide 4
T5 peptide: QFPVG[Cit]VHRLLR
Method: as §1

[6] = biological target: T6, peptide no. 5 (human histone 2A) (human, also: biotin-labelled); experiment: ELISA, Ab 0.4 ug/well
T6 construct: also called peptide 5
T6 peptide: VGRVH[Cit]LLRKGN
Method: as §1

[7] = biological target: T7, peptide no. 6 (human histone 2A) (human, also: biotin-labelled); experiment: ELISA, Ab 0.4 ug/well
T7 construct: also called peptide 6
T7 peptide: VHRLL[Cit]KGNYSE
Method: as §1

[8] = biological target: T8, peptide no. 7 (human histone 2A) (human, also: biotin-labelled); experiment: ELISA, Ab 0.4 ug/well
T8 construct: also called peptide 7
T8 peptide: GNYSE[Cit]VGAGAP
Method: as §1

[9] = biological target: T9, peptide no. 8 (human histone 2A) (human, also: biotin-labelled); experiment: ELISA, Ab 0.4 ug/well
T9 construct: also called peptide 8
T9 peptide: AGNAA[Cit]DNKKTR
Method: as §1

[10] = biological target: T10, peptide no. 9 (human histone 2A) (human, also: biotin-labelled); experiment: ELISA, Ab 0.4 ug/well
T10 construct: also called peptide 9
T10 peptide: DNKKT[Cit]IIPRHL
Method: as §1

[11] = biological target: T11, peptide no. 10 (human histone 2A) (human, also: biotin-labelled); experiment: ELISA, Ab 0.4 ug/well
T11 construct: also called peptide 10
T11 peptide: TRIIP[Cit]HLQLAI
Method: as §1

[12] = biological target: T12, peptide no. 11 (human histone 2A) (human, also: biotin-labelled); experiment: ELISA, Ab 0.4 ug/well
T12 construct: also called peptide 11
T12 peptide: LQLAI[Cit]NDEELN
Method: as §1

[13] = biological target: T13, peptide no. 12 (human histone 2A) (human, also: biotin-labelled); experiment: ELISA, Ab 0.4 ug/well
T13 construct: also called peptide 12
T13 peptide: NKLLG[Cit]VTIAQG
Method: as §1

[14] = biological target: T1, CFC-1; experiment: ELISA, Ab 0.08 ug/well
Method: as §1, with “fibrinogen and vimentin” for “histone 2A”
(§2) Biotin-labeled and citrulline-containing fibrinogen and vimentin peptides (Table 5) were also tested for reactivity with the therapeutic antibodies. Peptides were coated on 96-well NEUTRAVIDIN®-ELISA plates.

[15] = biological target: T14, msFibα XH (mouse, X at position 15 = citrulline; biotin-labelled); experiment: ELISA, Ab 0.08 ug/well
T14 peptide: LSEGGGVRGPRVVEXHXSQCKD
Method: as §1, with “fibrinogen and vimentin” for “histone 2A”
as §2

[16] = biological target: T15, huFibα XH (human, X at position 15 = citrulline; biotin-labelled); experiment: ELISA, Ab 0.08 ug/well
T15 peptide: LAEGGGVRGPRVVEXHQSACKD
Method: as §1, with “fibrinogen and vimentin” for “histone 2A”
as §2

[17] = biological target: T16, huFibα XG (human, X at position 8 = citrulline; biotin-labelled); experiment: ELISA, Ab 0.08 ug/well
T16 peptide: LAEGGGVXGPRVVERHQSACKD
Method: as §1, with “fibrinogen and vimentin” for “histone 2A”
as §2

[18] = biological target: T17, msFibβ XG (mouse, also: biotin-labelled); experiment: ELISA, Ab 0.08 ug/well
T17 construct: also called mouse fibrinogen β peptide
T17 peptide: EPTDSLDA[Cit]GHRPVDRR
Method: as §1, with “fibrinogen and vimentin” for “histone 2A”
as §2

[19] = biological target: T18, msVim XS/XL (mouse, also: biotin-labelled); experiment: ELISA, Ab 0.08 ug/well
T18 construct: also called mouse vimentin peptide
T18 peptide: YVT[Cit]SSAV[Cit]L[Cit]SSVP
Method: as §1, with “fibrinogen and vimentin” for “histone 2A”
as §2

[20] = biological target: T3, peptide no. 2 (human histone 2A); experiment: ELISA, Ab 0.016 ug/well
Method: as §1

[21] = biological target: T6, peptide no. 5 (human histone 2A); experiment: ELISA, Ab 0.016 ug/well
Method: as §1

[22] = biological target: T7, peptide no. 6 (human histone 2A); experiment: ELISA, Ab 0.016 ug/well
Method: as §1

[23] = biological target: T8, peptide no. 7 (human histone 2A); experiment: ELISA, Ab 0.016 ug/well
Method: as §1

[24] = biological target: T9, peptide no. 8 (human histone 2A); experiment: ELISA, Ab 0.016 ug/well
Method: as §1

[25] = biological target: T10, peptide no. 9 (human histone 2A); experiment: ELISA, Ab 0.016 ug/well
Method: as §1

[26] = biological target: T11, peptide no. 10 (human histone 2A); experiment: ELISA, Ab 0.016 ug/well
Method: as §1

[27] = biological target: T12, peptide no. 11 (human histone 2A); experiment: ELISA, Ab 0.016 ug/well
Method: as §1

[28] = biological target: T13, peptide no. 12 (human histone 2A); experiment: ELISA, Ab 0.016 ug/well
Method: as §1

B1: RhmAb2.102 (antibody, human IgG1, lambda)
heavy: not shown
light: QSVLTQPPSMSAAPGQKVTISCSGSSSNIGNNYVSWYQQVPGTAPKLLIYDDNKRPSGIPGRFSGSKSATSATLGITGLQAGDEADYYCGSWDDNLSVVLFGGGTKLTVLGQPKAAPSVTLFPPSSEELQANKATLVCLISDFYPGAVTVAWKADSSPVKAGVETTTPSKQSNNKYAASSYLSLTPEQWKSHRSYSCQVTHEGSTVEKTVAPTECS
notes: Human IgG1 lambda; also called Rhm2.102
OD [1]: 3.06 OD450
OD [2]: 2.8 OD450
OD [3]: 0.136 OD450
OD [4]: 0.154 OD450
OD [5]: 0.564 OD450
OD [6]: 0.082 OD450
OD [7]: 0.333 OD450
OD [8]: 0.064 OD450
OD [9]: 0.061 OD450
OD [10]: 0.057 OD450
OD [11]: 0.051 OD450
OD [12]: 0.064 OD450
OD [13]: 0.061 OD450
OD [14]: 3.03 OD450
OD [15]: 0.076 OD450
OD [16]: 0.08 OD450
OD [17]: 0.186 OD450
OD [18]: 0.515 OD450
OD [19]: 0.515 OD450
OD [20]: 0.065 OD450
OD [21]: 0.065 OD450
OD [22]: 0.075 OD450
OD [23]: 0.061 OD450
OD [24]: 0.063 OD450
OD [25]: 0.064 OD450
OD [26]: 0.066 OD450
OD [27]: 0.069 OD450
OD [28]: 0.057 OD450
